Stoichiometry N and Fholo data for three compounds are collected here from paper PMC3669411, “Characterization of Flavin-Based Fluorescent Proteins: An Emerging Class of Fluorescent Reporters” (PLoS ONE, 2013).

Experiment [1] has as its target EcFbFP, FMN-based fluorescent protein derived from the N-terminal LOV domain of Bacillus subtilis YTVA (E. coli codon-optimized gene) (Bacillus subtilis) (UniProt O34627). Kind of experiment: SEC; Superdex 200 gel filtration on AKTA FPLC, calibrated with globular protein standards; 1 M NaCl (20 mM Tris hydrochloride, 1 M NaCl, pH 8.0); oligomeric state = estimated mass divided by calculated monomer mass (110 Da per amino acid); mean of duplicates.

Experiment [2] shares this target. Briefly: SEC; Superdex 200 gel filtration on AKTA FPLC, calibrated with globular protein standards; 0.15 M NaCl (methods name phosphate buffered saline); oligomeric state = estimated mass divided by calculated monomer mass (110 Da per amino acid); mean of duplicates.
The target is the same in experiment [3]. Kind of experiment: SEC; Superdex 200 gel filtration on AKTA FPLC, calibrated with globular protein standards; 0.5 M NaCl; oligomeric state = estimated mass divided by calculated monomer mass (110 Da per amino acid); mean of duplicates.
The next experiment has as its target T1, iLOV (Arabidopsis thaliana, UniProt P93025, S394T/S409G/C426A/I452T/F470L/M475V).
T1 construct: gene PHOT2; primers give start MIEKNFVI, end LDGSDHV
Kind of experiment: absorbance at […] nm vs Bradford total protein, as purified. The class given is binding. The settings on record: FMN-bound fraction of purified protein; noncovalent.

The target of experiment [4] is PpFbFP, FMN-based fluorescent protein from Pseudomonas putida (Pseudomonas putida) (UniProt Q88JB0). Kind of experiment: SEC; Superdex 200 gel filtration on AKTA FPLC, calibrated with globular protein standards; 1 M NaCl (20 mM Tris hydrochloride, 1 M NaCl, pH 8.0); oligomeric state = estimated mass divided by calculated monomer mass (110 Da per amino acid); mean of duplicates.

Experiment [5] shares this target. Kind of experiment: SEC; Superdex 200 gel filtration on AKTA FPLC, calibrated with globular protein standards; 0.15 M NaCl (methods name phosphate buffered saline); oligomeric state = estimated mass divided by calculated monomer mass (110 Da per amino acid); mean of duplicates.
For experiment [6] the target is unchanged. Kind of experiment: SEC; Superdex 200 gel filtration on AKTA FPLC, calibrated with globular protein standards; 0.5 M NaCl; oligomeric state = estimated mass divided by calculated monomer mass (110 Da per amino acid); mean of duplicates.

A word on the stoichiometry N: it is a count of units in the complex or per binding partner.

T1 sequence (P93025 387-496 S394T/S409G/C426A/I452T/F470L/M475V): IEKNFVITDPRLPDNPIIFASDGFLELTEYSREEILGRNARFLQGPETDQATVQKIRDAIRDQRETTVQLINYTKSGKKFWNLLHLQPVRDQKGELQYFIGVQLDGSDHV

On to “EcFbFP, FMN-based fluorescent protein derived from the N-terminal LOV domain of Bacillus subtilis YTVA (E. coli codon-optimized gene) (from UniProt O34627 20-147) (domain or fragment)”, for which the stoichiometry N is 1.6 in experiment [1], 1.9 in experiment [2] and 1.7 in experiment [3].

Compound `Cc1cc2nc3c(=O)[nH]c(=O)nc-3n(C[C@H](O)[C@H](O)[C@H](O)COP(=O)(O)O)c2cc1C` [FMN] came in with a Fholo at iLOV of 0.39±0.01.

Regarding “PpFbFP, FMN-based fluorescent protein from Pseudomonas putida (from UniProt Q88JB0 1-151) (natural protein)”, the values for the stoichiometry N in experiment [4], in experiment [5] and in experiment [6] were 1.5, 1.9 and 1.7, respectively.
